The source of these data is article PMC5325477, “The single nucleotide variant rs12722489 determines differential estrogen receptor binding and enhancer properties of an IL2RA intronic region”.

The subject of data set [1] is ERα (endogenous, MT-2 nuclear extract) (human (MT-2 cells)). In words: pull-down (anti-ERα, qPCR). The conditions noted are these: normalized to 176 bp internal control DNA; EMSA: 10% glycerol, 80 mM KCl, 25 mM NaCl, 15 mM Tris pH 8.0, 0.18 mM EDTA, 1 mM MgCl2, 1.1 mM DTT, 50 uM Na3VO4, 33.3 ug/ml BSA, 150 ug/ml poly-dIdC, 20 min ….
In data set [2] the target is ERα (purified recombinant) (human, UniProt P03372 1-595). In words: EMSA; below detection limit; EMSA: 10% glycerol, 80 mM KCl, 25 mM NaCl, 15 mM Tris pH 8.0, 0.18 mM EDTA, 1 mM MgCl2, 1.1 mM DTT, 50 uM Na3VO4, 33.3 ug/ml BSA, 150 ug/ml poly-dIdC, 20 min room temperature, gel at 4 C; pull-down: 60 mM KCl, 12 mM HEPES pH 8.0, 4 mM Tris pH 8.0, 0.5 mM EDTA, 5% glycerol, 1 mM DTT, salmon sperm DNA, on ice, then RIPA buffer, 4 C overnight. The following applies: protein: recombinant; chain copies: 2; label: 32P (dATP, Klenow fill-in); blunt after Klenow fill-in (annealed oligos of 26 and 24 nt). On the technique in general: Mobility shift assays separate free from complexed probe on a gel.
ERα (purified recombinant), sequence (P03372 whole entry): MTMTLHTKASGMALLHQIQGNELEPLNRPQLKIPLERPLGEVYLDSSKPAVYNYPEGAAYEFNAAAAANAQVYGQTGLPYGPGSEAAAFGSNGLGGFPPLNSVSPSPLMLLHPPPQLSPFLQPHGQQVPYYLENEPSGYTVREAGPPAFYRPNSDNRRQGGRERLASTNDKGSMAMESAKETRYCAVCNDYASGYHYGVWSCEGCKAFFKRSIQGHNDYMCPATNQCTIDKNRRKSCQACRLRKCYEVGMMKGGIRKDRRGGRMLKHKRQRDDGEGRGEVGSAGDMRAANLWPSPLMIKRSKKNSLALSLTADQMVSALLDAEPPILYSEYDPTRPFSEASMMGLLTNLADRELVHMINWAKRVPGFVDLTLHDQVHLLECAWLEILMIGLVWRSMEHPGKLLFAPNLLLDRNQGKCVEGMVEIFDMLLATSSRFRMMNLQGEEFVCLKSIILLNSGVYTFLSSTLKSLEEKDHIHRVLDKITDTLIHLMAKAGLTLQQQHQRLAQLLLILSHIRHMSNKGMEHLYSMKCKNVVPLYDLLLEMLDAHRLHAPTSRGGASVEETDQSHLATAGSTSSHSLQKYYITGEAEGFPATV

As for IL2RA rs12722489 G, 189 bp PCR, the binding signal (fold vs A variant) in data set [1] turned out to be 2.

B1: IL2RA rs12722489 A, 32 bp (dsDNA)
DNA 1: ACTTATCCAAGGATCTGAGTGGTCTTGGAGGG
DNA 2: CCCTCCAAGACCACTCAGATCCTTGGATAAGT
Take B1: the binding result in data set [2] is on record as “no binding”.
